Source: paper PMC12199398, “Manipulating the Light Systemic Signal HY5 Greatly Improve Fruit Quality in Tomato”

B1: PSY1 Z-box probe (dsDNA)
DNA 1: GAAATCTACGTGTCTTAA
DNA 2: TTAAGACACGTAGATTTC
B2: LIN6 A-box probe (dsDNA)
DNA 1: CGCAATTAAATACGTAAGGGCTTTGA
DNA 2: TCAAAGCCCTTACGTATTTAATTGCG
B3: SS7 A-box probe (dsDNA)
DNA 1: GCCCGGTGTCTACGTAAGATTGACAG
DNA 2: CTGTCAATCTTACGTAGACACCGGGC
B4: VI ACE probe (dsDNA)
DNA 1: AAGAAAAAAAATGACGTTTTTCCCCTTATT
DNA 2: AATAAGGGGAAAAACGTCATTTTTTTTCTT
B5: SS1 ACE probe (dsDNA)
DNA 1: CACCCTTTAGACGTATTACAGTAG
DNA 2: CTACTGTAATACGTCTAAAGGGTG
B6: PDS C/G-box probe (dsDNA)
DNA 1: TGGTGGGACGTGTCAAATT
DNA 2: AATTTGACACGTCCCACCA
B7: LIN5 ACE probe (dsDNA)
DNA 1: GTAAATTATTACGTCAGGCTTTAT
DNA 2: ATAAAGCCTGACGTAATAATTTAC

Biological target: T1, HY5 (His-HY5) (Solanum lycopersicum (tomato), UniProt Q9SM50 1-158)
T1 sequence: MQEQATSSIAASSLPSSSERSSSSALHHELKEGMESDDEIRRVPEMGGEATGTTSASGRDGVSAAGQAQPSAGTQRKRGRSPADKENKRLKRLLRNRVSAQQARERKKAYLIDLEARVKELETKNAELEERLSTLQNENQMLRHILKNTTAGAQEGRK
Assay: EMSA; LightShift Chemiluminescent EMSA Kit (Thermo 20148); buffer, salt, pH and temperature not stated
Conditions: protein: recombinant; tags: His (pET-32a); chain copies: 2; blunt

Binding result, binds:
B1
B2
B3
B4
B5
B6
B7
